The source of these data is publication PMC10696041.

To fix the notation:
B1: MBP-CUB1CUB2 domains of PCPE-2, WT [human] / bone morphogenetic protein-1 [human] (parent)
chain 1: QSPERPVFTCGGILTGESGFIGSEGFPGVYPPNSKCTWKITVPEGKVVVLNFRFIDLESDNLCRYDFVDVYNGHANGQRIGRFCGTFRPGALVSSGNKMMVQMISDANTAGNGFMAMFSAAEPNERGDQYCGGLLDRPSGSFKTPNWPDRDYPAGVTCVWHIVAPKNQLIELKFEKFDVERDNYCRYDYVAVFNGGEVNDARRIGKYCGDSPPAPIVSERNELLIQFLSDLSLTADGFIGHYIFRPK
chain 2: AATSRPERVWPDGVIPFVIGGNFTGSQRAVFRQAMRHWEKHTCVTFLERTDEDSYIVFTYRPCGCCSYVGRRGGGPQAISIGKNCDKFGIVVHELGHVVGFWHEHTRPDRDRHVSIVRENIQPGQEYNFLKMEPQEVESLGETYDFDSIMHYARNTFSRGIFLDTIVPKYEVNGVKPPIGQRTRLSKGDIAQARKLYKCPACGETLQDSTGNFSSPEYPNGYSAHMHCVWRISVTPGEKIILNFTSLDLYRSRLCWYDYVEVRDGFWRKAPLRGRFCGSKLPEPIVSTDSRLWVEFRSSSNWVGKGFFAVYEAICGGDVKKDYGHIQSPNYPDDYRPSKVCIWRIQVSEGFHVGLTFQSFEIERHDSCAYDYLEVRDGHSESSTLIGRYCGYEKPDDIKSTSSRLWLKFVSDGSINKAGFAVNFFKEVDECSRPNRGGCEQRCLNTLGSYKCSCDPGYELAPDKRRCEAACGGFLTKLNGSITSPGWPKEYPPNKNCIWQLVAPTQYRISLQFDFFETEGNDVCKYDFVEVRSGLTADSKLHGKFCGSEKPEVITSQYNNMRVEFKSDNTVSKKGFKAHFFSEKRPALQPPRGRPHQLKFRVQKRNRTPQ

In the first test the parent is B1. The experiment in a line: SPR. Conditions: with bone morphogenetic protein-1 [human]; 50 nM MBP-CUB1CUB2; immobilized BMP-1 (1302 RU); parent: 17; read off a plot.
As for chain 1 QSPERPVFTCGGILTGESGFIGSEGFPGVYPPNSKCTWKITVPEGKVVVLNFRFIDLESDNLCRYDFVDVYNGHANGQRIGRFCGTFRPGALVSSGNKMMVQMISDANTAGNGFMAMFSAAEPNERGDQYCGGLLDRPSGSFKTPNWPDADYPAGVTCVWHIVAPKNQLIELKFEKFDVERDNYCRYDYVAVFNGGEVNDARRIGKYCGDSPPAPIVSERNELLIQFLSDLSLTADGFIGHYIFRPK [chain 1 R150A], the response came out at 18 RU.

Regarding chain 1 QSPERPVFTCGGILTGESGFIGSEGFPGVYPPNSKCTWKITVPEGKVVVLNFRFIDLESDNLCRYDFVDVYNGHANGQRIGRFCGTARPGALVSSGNKMMVQMISDANTAGNGFMAMFSAAEPNERGDQYCGGLLDRPSGSFKTPNWPDRDYPAGVTCVWHIVAPKNQLIELKFEKFDVERDNYCRYDYVAVFNGGEVNDARRIGKYCGDSPPAPIVSERNELLIQFLSDLSLTADGFIGHYIFRPK [chain 1 F87A], the response is 16 RU.

Turning to chain 1 QSPERPVFTCGGILTGESGFIGSEGFPGVYPPNSKCTWKITVPEGAVVVLNFRFIDLESDNLCRYDFVDVYNGHANGQRIGRFCGTFRPGALVSSGNKMMVQMISDANTAGNGFMAMFSAAEPNERGDQYCGGLLDRPSGSFKTPNWPDRDYPAGVTCVWHIVAPKNQLIELKFEKFDVERDNYCRYDYVAVFNGGAVNDARRIGKYCGDSPPAPIVSEANELLIQFLSDLSLTADGFIGHYIFRPK [chain 1 K46A E197A R220A], the response was 7.2 RU.

Staying with this test, now noted: with bone morphogenetic protein-1 [human]; 50 nM MBP-CUB1CUB2; immobilized BMP-1 (1302 and 1492 RU); parent: 100; read off a plot.
Regarding chain 1 QSPERPVFTCGGILTGESGFIGSEGFPGVYPPNSKCTWKITVPEGAVVVLNFRFIDLESDNLCRYDFVDVYNGHANGQRIGRFCGTFRPGALVSSGNKMMVQMISDANTAGNGFMAMFSAAEPNERGDQYCGGLLDRPSGSFKTPNWPDRDYPAGVTCVWHIVAPKNQLIELKFEKFDVERDNYCRYDYVAVFNGGAVNDARRIGKYCGDSPPAPIVSEANELLIQFLSDLSLTADGFIGHYIFRPK [chain 1 K46A E197A R220A], the percent of parent (% binding / WT) was 40.
